In US20050064518A1 (PURDUE PHARMA L P, published 2005):

Assays:
[1] = target: T1, O772P 3-repeat TM on transfected NIH/3T3 cells (human); assay: flow cytometry, NIH/3T3 cells expressing O772P 3-repeat TM; Ab 0.5 µg/ml
T1 construct: also called NIH/3T3 O772P 3-repeat
T1 chain: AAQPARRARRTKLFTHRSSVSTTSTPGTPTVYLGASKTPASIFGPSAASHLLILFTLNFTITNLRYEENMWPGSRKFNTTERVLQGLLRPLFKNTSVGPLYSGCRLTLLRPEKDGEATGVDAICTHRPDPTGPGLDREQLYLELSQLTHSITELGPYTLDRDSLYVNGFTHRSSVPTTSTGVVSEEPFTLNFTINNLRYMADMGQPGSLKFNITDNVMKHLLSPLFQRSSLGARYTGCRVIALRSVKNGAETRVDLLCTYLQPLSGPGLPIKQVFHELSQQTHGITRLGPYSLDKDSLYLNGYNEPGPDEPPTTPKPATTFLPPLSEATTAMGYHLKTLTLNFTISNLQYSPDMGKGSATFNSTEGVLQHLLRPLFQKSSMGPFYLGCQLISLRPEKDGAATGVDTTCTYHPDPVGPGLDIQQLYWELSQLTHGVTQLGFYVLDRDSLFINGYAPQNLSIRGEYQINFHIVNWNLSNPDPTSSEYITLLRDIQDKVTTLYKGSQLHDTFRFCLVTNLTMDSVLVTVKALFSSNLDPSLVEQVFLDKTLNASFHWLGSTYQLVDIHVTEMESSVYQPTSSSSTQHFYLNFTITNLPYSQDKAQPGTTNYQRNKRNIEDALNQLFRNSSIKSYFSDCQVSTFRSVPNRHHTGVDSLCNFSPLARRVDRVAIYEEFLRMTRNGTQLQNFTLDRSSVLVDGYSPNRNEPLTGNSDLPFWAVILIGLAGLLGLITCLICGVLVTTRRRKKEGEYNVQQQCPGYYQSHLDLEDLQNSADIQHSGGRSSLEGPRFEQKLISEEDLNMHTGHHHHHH
Protocol: Cells (OVCAR-3 (ATCC Accession No. HTB-161), SK-OV3 (ATCC Accession No. HTB-77), NIH/3T3 (ATCC Accession No. CRL-1658), and NIH/3T3 cells transfected with a sequence that expresses O772P 3-repeat protein (SEQ ID NO:2)) were removed from culture plates by digestion with trypsin (0.25%). The cells were counted and viability was assessed by trypan blue (0.2%) exclusion. Cells were then centrifuged (500×g, 5 min) and resuspended in FACS buffer (1×DPBS containing 1% BSA and 0.1% sodium azide) to a concentration between 5-10×10⁷ cells/ml. Cells were then distributed at a volume of 100 μL/well into 96-well round bottom plates and centrifuged at 500×g for 3 minutes. Antibody supernatant was removed by aspiration, and 50 μl hybridoma supernatants diluted to 1 μg/ml and 0.5 μg/μl in FACS buffer and was added to each well containing cells. Murine IgG1 kappa (Sigma, St. Louis, Mo.) (either 2.0, 1.0, 0.5, 0.1 μg/μl) was included as a negative control and OC125 and M11 (DAKO Corp, Carpinteria, Calif.) were included as positive controls. Plates were incubated for 30 minutes at 4° C. with rocking. Cells were subsequently washed 2 times with FACS buffer (200 μl/well), with centrifugation and buffer aspiration following each wash. Goat anti-mouse IgG (Fc)-biotin (Sigma, St. Louis, Mo.) was diluted 1:1000 in FACS buffer and 50 μl was added to each well containing cells. Plates were incubated 30 minutes at 4° C. with rocking. Cells were then washed with FACS buffer as above. Streptavidin-Alexa-Four 488 (Molecular Probes, Eugene, Oreg.) was diluted 1:1000 into FACS buffer and 50 μl was added to each well containing cells. Plates were then incubated 30 minutes at 4° C. with […]. Cells were then washed with FACS buffer, as above. Cells were then resuspended in 1 ml of FACS buffer and transferred to Falcon 2052 tubes and analyzed on a Becton-Dickinson Immunocytometry Systems FACSCalibur flow cytometer (San Jose, Calif.).

[2] = target: T2, O772P 3-repeat recombinant protein (human); assay: ELISA, plate-bound O772P 3-repeat
T2 construct: Repeats are residues 14-452 of the entry
T2 chain: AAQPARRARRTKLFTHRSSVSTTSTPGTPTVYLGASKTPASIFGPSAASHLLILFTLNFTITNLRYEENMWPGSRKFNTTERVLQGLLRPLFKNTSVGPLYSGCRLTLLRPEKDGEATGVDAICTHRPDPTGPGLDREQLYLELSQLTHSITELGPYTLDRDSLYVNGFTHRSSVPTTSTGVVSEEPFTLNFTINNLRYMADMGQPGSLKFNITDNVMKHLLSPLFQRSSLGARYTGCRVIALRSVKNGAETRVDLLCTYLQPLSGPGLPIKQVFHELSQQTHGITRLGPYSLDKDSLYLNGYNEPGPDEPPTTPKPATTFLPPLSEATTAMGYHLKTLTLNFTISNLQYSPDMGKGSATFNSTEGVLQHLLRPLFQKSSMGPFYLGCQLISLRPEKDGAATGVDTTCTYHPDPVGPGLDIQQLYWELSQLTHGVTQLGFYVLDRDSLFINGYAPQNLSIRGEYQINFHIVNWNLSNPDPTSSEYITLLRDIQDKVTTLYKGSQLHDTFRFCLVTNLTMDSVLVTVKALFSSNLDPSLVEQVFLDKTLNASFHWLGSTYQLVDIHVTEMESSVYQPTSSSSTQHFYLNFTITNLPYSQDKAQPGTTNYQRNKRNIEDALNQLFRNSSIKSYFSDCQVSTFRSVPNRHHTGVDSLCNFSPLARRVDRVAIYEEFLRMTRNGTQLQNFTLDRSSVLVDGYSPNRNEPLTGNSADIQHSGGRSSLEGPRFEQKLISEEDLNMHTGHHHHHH
Protocol: On the next day, the plates were washed with 200 μl 1×PBST (1× phosphate-buffered saline (PBS), 0.05% Tween 20) three times and blocked with 100 μl of 1×PBST containing 1% bovine serum albumin (BSA) for 2 hours at 37° C. […] After 1 hour incubation at 37° C., the plates were then washed with 1×PBST three times. For signal detection, 100 μl of HRP (horseradish peroxidase)-conjugated sheep anti-mouse IgG (1:2000 dilution into 1×PBST+1% BSA; Amersham Biosciences) was added to each well and incubated for 1 hour at 37° C. The plates were again washed three times with 1×PBST. Finally, 100 μl¹ of a mixture of TMB (3,3′, 5,5′-tetramethylbenzidine) substrate and H₂O₂ (1:1 ratio, KPL Kirkguard Perry Laboratories) was added into each well and after a 5 minute incubation, the absorbance was measured at 405 nm with a plate reader (Molecular Devices Corp., Sunnyvale, Calif.). The assay was done in triplicate for each selected O772P hybridoma-produced antibody and data was collected and analyzed as a kinetic assay, measured over a 5 minute time period. Average values were calculated and presented. Controls for blank and individual reagents were also included in each experiment.

Binder	% positive cells [1]	absorbance (OD) [2]	absorbance (OD)/µg Ab [2]
monoclonal antibody 368.1 (antibody, V domains shown, Murine hybridoma antibody) VH: EVQLQQSGPELVRTGASVKISCKASGYSFTGFYMHWVKQSLGKSLEWIGYVSCYTGATTYTQKFKGKATFTVDTSSSTAYMQLNSLTSEDSAVYYCAREGDYYSMDFWGQGTSVTVSS VL: DVVMTQTPLSLPVSLGDQASISCRSSQSLERTNGNTYLHWYLQKPGQSPKLLIYKVSSRFSGVPDRFSGSGSGTDFTLKISRVEAEDLGIYFCSQTTHGPPTCGGGTKLEIK	75%	1.29 OD	32 OD/µg Ab
monoclonal antibody 117.1 (antibody, V domains shown, Murine hybridoma antibody) VH: QVTLKESGPGILQPSQTLSLTCSFSGFSLSTPGMGVGWIRQPSGKGLEWLAHIWWDDFKRDNPALKSRLTISKDTSSSQVFLKIASVDTADTATYYCVRVDGNFLSWYFDVWGAGTTVTVSS VL: DAVMTQTPLSLPVSLGDQASISCRSSQSLVHSNGNTYLHWYLQKPGQSPKLLIYKVSNRFSGVPDRFSGSGSGTDFTLRISRVEAEDLGVYFCSQSRYVPWTFGGGTKLEIK	63%	0.619 OD	15 OD/µg Ab
monoclonal antibody 501.1 (antibody, V domains shown, Murine hybridoma antibody) VH: QIQLVQSGPELKKPGETVQISCKASGYIFTDYGMNWVKQAPGKGLKWMGCINTYTGETIYSDDFRGRFAISLETSASTAFIQINNLKNEDAATYFCARGNYRDAIDYWGQGTSVTVSS VL: DIKMTQSPSSIYASLGERVTITCKASQDIKSYLSWYQQKPWKSPKTLIYYATTLADGVPSRFSGSGSGQDYSLIINSLESDDIATYFCLHHDESPFTFGSGTKLEI	85%	0.856 OD	21 OD/µg Ab
